From patent US20220089722A1 (NANTONG YICHEN BIOPHARMA, published 2022)

Key:
[1] = molecular target: MICA on PANC-1, BXPC-3 or K562 cells (UniProt Q29983 24-383, limits assumed); assay: cell-based or functional assay
[2] = molecular target: T1, EGFR on F98-EGFR cells (UniProt P00533 25-1210, limits assumed); assay: cell-based or functional assay
[3] = molecular target: T1, EGFR on F98-EGFR cells; assay: flow cytometry on F98-EGFR cells
Protocol: F98-EGFR cells (a DMEM containing 10% FBS, 200 μg/ml G418) were cultured. 2×10⁵ cells were washed by precooled PBS for 3 times, and blocked by 2% FBS (soluble to PBS). IgFD-8, IgFD-9, IgFD-10, IgFD-11, IgFD-18, IgFD-19, IgFD-25, IgFD-26 or IgFD-31 (aEGFR expressed in a laboratory as a control) was added and incubated for 2 h at 4° C. (cells were gently mixed during incubation), unbounded antibodies were washed by 2% FBS (soluble to PBS), and then the remaining cells were incubated by FITC anti-human IgGFc(KPL, Inc., MD) for 1 h at 4° C., and washed by 2% FBS (soluble to PBS) for flow cytometry analysis. As shown in FIG. 7 and Table 4, the anti-CD3/anti-EGFR heterodimers in different forms of fusion could bind to EGFR on F98-EGFR cells, and there was no significant difference in the binding capacity of different heterodimers to F98-EGFR.

[4] = molecular target: T2, CD3 on T cells (Jurkat T cells; PBMC-T cells); assay: flow cytometry on activated T cells from PBMCs (PBMC-T)
T2 construct: whole, on cells; the target is inferred from the anti-CD3 arm of the constructs
Protocol: Peripheral blood of healthy volunteers was collected, and Ficoll-Hypaque(GE Healthcare) was used to separate peripheral blood monouclear cells (PBMCs) via gradient centrifugation. The purified PBMCs were resuspended in RPMI 1640/10% FBS complete medium. PBMCs were incubated with immobilized anti-CD3 (Clone OKT3, eBiosciences), and 2 μg mL anti-CD28 (Clone CloneCD28.2, eBiosciences) at 37° C. for 48 h. The activated T cells were then expanded for 10d with 20 U/ml IL2(R&D Systems). 2×10⁵ cells were washed by precooled PBS for 3 times, and blocked by 2% FBS (in PBS), and then incubated with IgFD-8, IgFD-18 or IgFD-19 at different concentrations (25 nM, 7.5 nM, 2.5 nM, 0.75 nM or 0.25 nM) for 1 h at 4° C. (cells were gently mixed during incubation). Unbounded antibodies were washed by 2% FBS (in PBS), and the cells were incubated with FITC anti-human IgGFc (KPL, Inc., MD) for 1 h at 4° C. (cells were gently mixed during incubation). The cells were subjected for flow cytometry analysis after the unbounded antibodies were washed by 2% FBS (in PBS).

[5] = molecular target: T3, CD19 on NALM-6 cells (UniProt P15391 20-556, limits assumed); assay: cell-based or functional assay
T3 sequence (looked up): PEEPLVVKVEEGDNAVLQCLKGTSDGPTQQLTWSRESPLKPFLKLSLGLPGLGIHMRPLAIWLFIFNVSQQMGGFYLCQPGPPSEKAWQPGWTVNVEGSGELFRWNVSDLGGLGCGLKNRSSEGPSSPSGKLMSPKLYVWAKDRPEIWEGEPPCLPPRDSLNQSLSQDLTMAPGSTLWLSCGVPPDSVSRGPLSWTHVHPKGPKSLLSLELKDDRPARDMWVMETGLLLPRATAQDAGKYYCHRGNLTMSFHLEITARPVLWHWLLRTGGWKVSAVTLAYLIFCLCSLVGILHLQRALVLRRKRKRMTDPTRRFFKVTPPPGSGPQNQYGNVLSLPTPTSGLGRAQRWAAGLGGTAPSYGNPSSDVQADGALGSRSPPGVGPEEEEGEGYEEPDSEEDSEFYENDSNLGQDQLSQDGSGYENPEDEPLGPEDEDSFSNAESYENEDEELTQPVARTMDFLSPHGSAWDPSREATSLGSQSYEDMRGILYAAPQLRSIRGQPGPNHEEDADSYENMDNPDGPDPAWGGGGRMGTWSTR

MICA on PANC-1, BXPC-3 or K562 cells, sequence (Q29983 24-383 limits assumed): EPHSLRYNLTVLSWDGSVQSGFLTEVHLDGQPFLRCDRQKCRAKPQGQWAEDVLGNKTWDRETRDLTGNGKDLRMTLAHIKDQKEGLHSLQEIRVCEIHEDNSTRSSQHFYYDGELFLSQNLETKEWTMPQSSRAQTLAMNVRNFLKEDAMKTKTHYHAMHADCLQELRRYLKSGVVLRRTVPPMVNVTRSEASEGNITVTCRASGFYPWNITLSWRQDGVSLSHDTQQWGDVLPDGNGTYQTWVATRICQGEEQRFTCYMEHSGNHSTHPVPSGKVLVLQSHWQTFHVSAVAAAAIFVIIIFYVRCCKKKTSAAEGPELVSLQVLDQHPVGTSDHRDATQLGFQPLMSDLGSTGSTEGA
T2 sequence (P07766 23-207): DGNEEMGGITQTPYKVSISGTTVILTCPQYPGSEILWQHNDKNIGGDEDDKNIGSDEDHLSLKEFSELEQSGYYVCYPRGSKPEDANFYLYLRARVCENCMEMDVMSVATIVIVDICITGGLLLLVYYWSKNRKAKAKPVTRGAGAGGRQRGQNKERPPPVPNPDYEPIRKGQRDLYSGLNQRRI

B1: IgFD-37(anti-CD3/MICA) (Fc fusion)
chain 1: EVQLVESGGGLVQPGGSLRLSCAASGFTFNTYAMNWVRQAPGKGLEWVARIRSKYNNYATYYADSVKDRFTISRDDSKNTLYLQMNSLRAEDTAVYYCVRHGNFGNSYVSWFAYWGQGTLVTVSSASTKGPSVFPLAPSSKSTSGGTAALGCLVKDYFPEPVTVSWNSGALTSGVHTFPAVLQSSGLYSLSSVVTVPSSSLGTQTYICNVNHKPSNTKVDKKVEPKSCDKTHTCPPCPAPPVAGPSVFLFPPKPKDTLMISRTPEVTCVVVDVSHEDPEVKFNWYVDGVEVHNAKTKPREEQYNSTYRVVSVLTVLHQDWLNGKEYKCKVSNKGLPSSIEKTISKAKGQPREPQVYTLPPCRDELTKNQVSLWCLVKGFYPSDIAVEWESNGQPENNYKTTPPVLDSDGSFFLYSKLTVDKSRWQQGNVFSCSVMHEALHNHYTQKSLSLSPGKGGSGAKLAALKAKLAALKGGGGSFLNSLFNQEVQIPLTESYCGPCPKNWICYKNNCYQFFDESKNWYESQASCMSQNASLLKVYSKEDQDLLKLVKSYHWMGLVHIPTNGSWQWEDGSILSPNLLTIIEMQKGDCALYASSFKGYIENCSTPNTYICMQRTV
chain 2: QAVVTQEPSLTVSPGGTVTLTCRSSTGAVTTSNYANWVQQKPDHLFRGLIGGTNKRAPGTPARFSGSLLGDKAALTISGAQPEDEAEYYCALWYSNLWVFGGGTKLTVLKRTVAAPSVFIFPPSDEQLKSGTASVVCLLNNFYPREAKVQWKVDNALQSGNSQESVTEQDSKDSTYSLSSTLTLSKADYEKHKVYACEVTHQGLSSPVTKSFNRGECDKTHTCPPCPAPPVAGPSVFLFPPKPKDTLMISRTPEVTCVVVDVSHEDPEVKFNWYVDGVEVHNAKTKPREEQYNSTYRVVSVLTVLHQDWLNGKEYKCKVSNKGLPSSIEKTISKAKGQPREPQVCTLPPSRDELTKNQVSLSCAVKGFYPSDIAVEWESNGQPENNYKTTPPVLDSDGSFFLVSKLTVDKSRWQQGNVFSCSVMHEALHNHYTQKSLSLSPGKGGSGAKLAALKAKLAALKGGGGSFLNSLFNQEVQIPLTESYCGPCPKNWICYKNNCYQFFDESKNWYESQASCMSQNASLLKVYSKEDQDLLKLVKSYHWMGLVHIPTNGSWQWEDGSILSPNLLTIIEMQKGDCALYASSFKGYIENCSTPNTYICMQRTV
Promotion for the specific killing effect of PBMCs on target cells by heterodimers (EC50, pM); K562 cells, LDH assay [1]: 1090 pM | Promotion for the specific killing effect of PBMCs on target cells by heterodimers (EC50, pM); PANC-1 cells, LDH assay [1]: 676 pM

B2: IgFD-8 (bispecific antibody, human IgG1, kappa)
chain 1: EVQLVESGGGLVQPGGSLRLSCAASGFTFNTYAMNWVRQAPGKGLEWVARIRSKYNNYATYYADSVKDRFTISRDDSKNTLYLQMNSLRAEDTAVYYCVRHGNFGNSYVSWFAYWGQGTLVTVSSASTKGPSVFPLAPSSKSTSGGTAALGCLVKDYFPEPVTVSWNSGALTSGVHTFPAVLQSSGLYSLSSVVTVPSSSLGTQTYICNVNHKPSNTKVDKKVEPKSCDKTHTCPPCPAPPVAGPSVFLFPPKPKDTLMISRTPEVTCVVVDVSHEDPEVKFNWYVDGVEVHNAKTKPREEQYNSTYRVVSVLTVLHQDWLNGKEYKCKVSNKGLPSSIEKTISKAKGQPREPQVYTLPPSRDELTKNQVSLTCLVKGFYPSDIAVEWESNGQPENNYKTTPPVLDSDGSFFLYSKLTVDKSRWQQGNVFSCSVMHEALHNHYTQKSLSLSPGK
chain 2: QAVVTQEPSLTVSPGGTVTLTCRSSTGAVTTSNYANWVQQKPDHLFRGLIGGTNKRAPGTPARFSGSLLGDKAALTISGAQPEDEAEYYCALWYSNLWVFGGGTKLTVLKRTVAAPSVFIFPPSDEQLKSGTASVVCLLNNFYPREAKVQWKVDNALQSGNSQESVTEQDSKDSTYSLSSTLTLSKADYEKHKVYACEVTHQGLSSPVTKSFNRGECDKTHTCPPCPAPPVAGPSVFLFPPKPKDTLMISRTPEVTCVVVDVSHEDPEVKFNWYVDGVEVHNAKTKPREEQYNSTYRVVSVLTVLHQDWLNGKEYKCKVSNKGLPSSIEKTISKAKGQPREPQVYTLPPSRDELTKNQVSLTCLVKGFYPSDIAVEWESNGQPENNYKTTPPVLDSDGSFFLYSKLTVDKSRWQQGNVFSCSVMHEALHNHYTQKSLSLSPGKGGSGGSGGGGSGGGGSDIQMTQSPSSLSASVGDRVTITCQASQDISNYLNWYQQKPGKAPKLLIYDASNLETGVPSRFSGSGSGTDFTFTISSLQPEDIATYFCQHFDHLPLAFGGGTKVEIKGGGGSGGGGSGGGGSQVQLQESGPGLVKPSETLSLTCTVSGGSVSSGDYYWTWIRQSPGKGLEWIGHIYYSGNTNYNPSLKSRLTISIDTSKTQFSLKLSSVTAADTAIYYCVRDRVTGAFDIWGQGTMVTVSS
Promotion for the specific killing effect of PBMCs on target cells by heterodimers (EC50, pM); F98-EGFR cells, LDH assay [2]: 766 pM | Kd [3]: 3.12 nM | Kd [4]: 3.74 nM

B3: IgFD-7(anti-CD19/CD3) (bispecific antibody, human IgG1, kappa)
chain 1: EVQLVESGGGLVQPGGSLRLSCAASGFTFNTYAMNWVRQAPGKGLEWVARIRSKYNNYATYYADSVKDRFTISRDDSKNTLYLQMNSLRAEDTAVYYCVRHGNFGNSYVSWFAYWGQGTLVTVSSASTKGPSVFPLAPSSKSTSGGTAALGCLVKDYFPEPVTVSWNSGALTSGVHTFPAVLQSSGLYSLSSVVTVPSSSLGTQTYICNVNHKPSNTKVDKKVEPKSCDKTHTCPPCPAPPVAGPSVFLFPPKPKDTLMISRTPEVTCVVVDVSHEDPEVKFNWYVDGVEVHNAKTKPREEQYNSTYRVVSVLTVLHQDWLNGKEYKCKVSNKGLPSSIEKTISKAKGQPREPQVYTLPPSRDELTKNQVSLTCLVKGFYPSDIAVEWESNGQPENNYKTTPPVLDSDGSFFLYSKLTVDKSRWQQGNVFSCSVMHEALHNHYTQKSLSLSPGK
chain 2: QAVVTQEPSLTVSPGGTVTLTCRSSTGAVTTSNYANWVQQKPDHLFRGLIGGTNKRAPGTPARFSGSLLGDKAALTISGAQPEDEAEYYCALWYSNLWVFGGGTKLTVLKRTVAAPSVFIFPPSDEQLKSGTASVVCLLNNFYPREAKVQWKVDNALQSGNSQESVTEQDSKDSTYSLSSTLTLSKADYEKHKVYACEVTHQGLSSPVTKSFNRGECDKTHTCPPCPAPPVAGPSVFLFPPKPKDTLMISRTPEVTCVVVDVSHEDPEVKFNWYVDGVEVHNAKTKPREEQYNSTYRVVSVLTVLHQDWLNGKEYKCKVSNKGLPSSIEKTISKAKGQPREPQVYTLPPSRDELTKNQVSLTCLVKGFYPSDIAVEWESNGQPENNYKTTPPVLDSDGSFFLYSKLTVDKSRWQQGNVFSCSVMHEALHNHYTQKSLSLSPGKSGGGGSGGGGSGGGGSDIQMTQTTSSLSASLGDRVTISCRASQDISKYLNWYQQKPDGTVKLLIYHTSRLHSGVPSRFSGSGSGTDYSLTISNLEQEDIATYFCQQGNTLPYTFGGGTKLEITGGGGSGGGGSGGGGSEVKLQESGPGLVAPSQSLSVTCTVSGVSLPDYGVSWIRQPPRKGLEWLGVIWGSETTYYNSALKSRLTIIKDNSKSQVFLKMNSLQTDDTAIYYCAKHYYYGGSYAMDYWGQGTSVTVSS
Promotion for the specific killing effect of PBMCs on target cells by heterodimers (EC50, pM); Nalm-6 cells [5]: 11.7 pM
